The target in the test is GST-Raf(1-257) (human). Kind of test: peptide competition of Ras-GTP / GST-Raf co-precipitation.

No end group written: not given here.

As for EDSYRKQVVIDGETC (not fully specified (N-terminus, C-terminus)) [Ras 37-51 peptide], the half-maximal inhibitory concentration (IC50) (usually the concentration that gives 50% inhibition) amounted to 100 µM.

The values above are taken from US5763571, “Inhibiting protein interactions” (The General Hospital Corporation, dated 1998).
